“Also recorded” adds a separate entry of the source. No end group written: not given here.

What all share (assay type): binding
One assay concerns the target T1, JNK2 (Homo sapiens, UniProt P45984).
T1 construct: expressed in transfected cells
Description: GST-fusion pull-down from cell lysates, Flag immunoblot: JNK2. The conditions noted are these: 5 μg GST-fusion protein on glutathione-Sepharose, Flag-JNK2 lysate, one hour 4° C. Here is the method: (§1) To test whether JIP-1 binding to JNK is also isoform-dependent, a binding assay was utilized. Cell lysates (1 ml in TLB) containing JNK1, JNK2, or p38 MAP kinase, each tagged with the Flag epitope, were incubated with 5 μg GST-fusion proteins pre-bound to 10 μl glutathione-Sepharose. The GST fusion proteins used contain residues 127-202 (SEQ ID NO:15), 203-281 (SEQ ID NO:16), 164-240 (SEQ ID NO:17), or 127-281 (SEQ ID NO:4) of JIP-1. The GST-ATF2 fusion protein contains residues 1-109 of ATF2, and the GST-Jun fusion protein contains residues 1-79 of c-Jun. After incubation for one hour at 4° C. and three washes with TLB, bound proteins were detected by protein immunoblot analysis with the M2 monoclonal antibody, which is specific for the Flag epitope. Dérijard, et al., supra; Sluss et al., supra; Gupta et al., supra. […] This finding is consistent with the results of previous studies. In contrast, when GST-JIP-1 fusion proteins containing residues 127-202 or 127-281 of JIP-1 were tested in the assay, these proteins bound both JNK1 and JNK2.
(§2) The GST-JIP-1 fusion proteins containing various portions of the JIP-1 gene were used to define regions of JIP-1 that are required for JNK interaction. A GST-JIP-1 fusion protein containing residues 127-281 of JIP-1 bound both JNK1 and JNK2.
(§3) To more precisely define the JIP-1 sequence required for JNK binding activity, additional […] fusion proteins were constructed. These fusion proteins contained residues 135-202 (SEQ ID NO:18), 144-202 (SEQ ID NO:19), 154-202 (SEQ ID NO:20), 164-202 (SEQ ID NO:21), 127-143 (SEQ ID NO:22), 127-153 (SEQ ID NO:23), or 127-163 (SEQ ID NO:24) of JIP-1. Proteins containing residues 127-202, 135-202, 144-202, […], and 127-163 all bound both JNK1 and JNK2. Thus, JIP-1 residues 144-163 are important for the interaction of JIP-1 with JNK.
(In general: A western blot detects proteins with antibodies after separation by electrophoresis.)

The target in another assay is T2, JNK1 (Homo sapiens, UniProt P45983).
T2 construct: expressed in transfected cells
As to the kind of experiment: GST-fusion pull-down from cell lysates, Flag immunoblot: JNK1. The conditions noted are these: for binding to JNK1: 5 μg GST-fusion protein on glutathione-Sepharose, Flag-JNK1 lysate, one hour 4° C.; for level of binding to JNK1 compared with JNK2: GST pull-down, Flag immunoblot. How it is done:
as §1, §2, §3

Assay [1] concerns the target T3, JIP-1-JNK interaction (JNK1) (Homo sapiens, UniProt P45983).
T3 construct: expressed in transfected cells; GST-JIP-1 from a bacterial pGEX-3X vector
Description: Synthetic peptide competition of JIP-1-JNK interaction (GST-JIP-1 127-281 pull-down). The conditions noted are these: for effect of peptide on JIP-1 binding to JNK1: peptide 0, 4, 8, 16, 32, and 64 μg/ml, GST-JIP-1 (residues 127-281); for inhibition of JIP-1 binding to JNK by peptide: synthetic peptides 64 μg/ml, JNK1 binding to GST-JIP-1 residues 127-281. Here is the method: The effect of increasing concentrations (0, 4, 8, 16, 32, and 64 μg/ml) of a synthetic peptide corresponding to JIP-1 residues 148-174 (SEQ. ID NO:3) or a control peptide having a scrambled sequence (SEQ ID NO:12) on JIP-1-JNK interaction was examined. Peptides were synthesized using an Applied Biosystems machine. Cell lysates containing Flag epitope-tagged JNK were incubated with GST-JIP-1 (residues 127-281) prebound to glutathione-Sepharose. The beads were washed, and bound proteins were detected by protein immunoblot analysis with a Flag-specific antibody.
The JNK binding domain of JIP-1 contains three amino acids, Lys-155, Thr-159, and Leu-160, that are conserved in the JNK binding domains of ATF2 and c-Jun (FIG. 2). A hydrophobic amino acid, Leu, is found at residue 162 of JIP-1. ATF2 and c-Jun also contain hydrophobic amino acids (ATF2, Phe; c-Jun, Leu) in the position corresponding to residue 162 of JIP-1. To test if these conserved residues are involved in JNK binding, the wild type JIP-1 JBD (residues 148-174) was substituted with glycines in these positions to produce the peptides shown in FIG. 3 (SEQ ID NOs:7-11). The mutant peptides are identical to the wild type peptide except for the indicated glycine substitutions. The binding of JNK1 to GST, as well as a GST fusion protein containing JIP-1 residues 127-281, was examined in the absence and presence of the synthetic peptides (64 μg/ml). A peptide with a scrambled sequence (SEQ ID NO:12) was used as a control. […] In contrast, the control peptide caused no change in JNK binding.
Peptides suspected of having JIP-1 activity can be tested in the JNK binding assay described supra. Peptides are synthesized by methods that are well known to those skilled in the art; for example, using an Applied Biosystems synthesizer. Cell lysates containing Flag epitope-tagged JNK are incubated with GST-JIP-1 (residues 127-281) bound to glutathione-Sepharose, either with or without synthetic peptides (0, 4, 8, 16, 32 or 64 μg/ml), for one hour at 4° C. The beads are washed in TLB, and the bound proteins are detected by protein immunoblot analysis with a Flag-specific antibody, e.g., M2. Synthetic peptides with JIP-1 activity are those which inhibit the interaction of JIP-1 with JNK, as detected in this assay.

T2 sequence (P45983 1-384 isoform P45983-2): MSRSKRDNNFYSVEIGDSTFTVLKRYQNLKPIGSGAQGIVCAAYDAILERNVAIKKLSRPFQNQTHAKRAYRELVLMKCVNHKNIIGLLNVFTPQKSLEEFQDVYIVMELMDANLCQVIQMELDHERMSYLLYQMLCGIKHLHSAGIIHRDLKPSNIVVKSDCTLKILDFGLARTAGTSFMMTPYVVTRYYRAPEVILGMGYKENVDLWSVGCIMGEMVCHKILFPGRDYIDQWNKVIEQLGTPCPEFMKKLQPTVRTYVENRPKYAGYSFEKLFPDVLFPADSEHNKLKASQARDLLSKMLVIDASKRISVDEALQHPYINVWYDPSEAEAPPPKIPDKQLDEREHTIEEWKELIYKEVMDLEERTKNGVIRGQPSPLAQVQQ
T3 sequence (P45983 1-384 isoform P45983-2): as above

Consider “GST-JIP-1 residues 144-202: GST fusion protein containing residues 144-202 of JIP-1 (PGTGSGDTYRPKRPTTLNLFPQVPRSQDTLNNNSLGKKHSWQDRVSRSSSPLKTGEQTP; also: GST fusion; UniProt Q9WVI9 144-202, looked up, fragment)”, for which the “binding to JNK2” value with JNK2 was “bound”. For the same molecule, the “binding to JNK1” value in the assay with JNK1 is reported as “bound”.

Turning to “SEQ ID NO:12: control peptide having a scrambled sequence (NSLGTDDTQYSRRPPKVRQPNPTFTLL) [reference compound]”, in assay [1], the “effect of peptide on JIP-1 binding to JNK1” value is given as “no effect” and the “inhibition of JIP-1 binding to JNK by peptide” value is given as “no change”.

“GST-JIP-1 residues 154-202: GST fusion protein containing residues 154-202 of JIP-1 (PKRPTTLNLFPQVPRSQDTLNNNSLGKKHSWQDRVSRSSSPLKTGEQTP; also: GST fusion; UniProt Q9WVI9 154-202, looked up, fragment)”: the “binding to JNK2” value in the assay with JNK2 was “bound”. Also, in the assay with JNK1, the “binding to JNK1” value is “bound”.

For the molecule “GST-JIP-1 residues 127-163: GST fusion protein containing residues 127-163 of JIP-1 (PKAESNQDPAPRSQGQGPGTGSGDTYRPKRPTTLNLF; also: GST fusion; UniProt Q9WVI9 127-163, looked up, fragment)”, the “binding to JNK2” value with JNK2 was “bound”. Also, the “binding to JNK1” value with JNK1 is “bound”.

On to “SGDTYRPKRPTTLNLFPQVPRSQDTLN [JIP-1 residues 148-174, synthetic peptide corresponding to JIP-1 residues 148-174, core of the JBD]”, for which, in assay [1], the “effect of peptide on JIP-1 binding to JNK1” value was “dose-dependent decrease” and the “inhibition of JIP-1 binding to JNK by peptide” value was “dose-dependent inhibition”.

B1: GST-ATF2: GST fusion protein containing residues 1-109 of ATF2 (protein)
chain: MKFKLHVNSARQYKDLWNMSDDKPFLCTAPGCGQRFTNEDHLAVHKHKHEMTLKFGPARNDSVIVADQTPTPTRFLKNCEEVGLFNELASPFENEFKKASEDDIKKMPL
modifications: left off: a dimerising Fc or GST
notes: GST fusion protein containing residues 1-109 of ATF2
In the case of B1, the “level of binding to JNK1 compared with JNK2” value with JNK1 is on record as “greater than binding to JNK2”.

B2: GST-JIP-1 residues 135-202: GST fusion protein containing residues 135-202 of JIP-1 (protein, UniProt Q9WVI9 135-202, looked up, fragment)
chain: PAPRSQGQGPGTGSGDTYRPKRPTTLNLFPQVPRSQDTLNNNSLGKKHSWQDRVSRSSSPLKTGEQTP
modifications: GST fusion
As to B2, the “binding to JNK2” value with JNK2 was “bound”. Further, the “binding to JNK1” value with JNK1 is given as “bound”.

B3: GST-Jun: GST fusion protein containing residues 1-79 of c-Jun (protein)
chain: MTAKMETTFYDDALNASFLPSESGPYGYSNPKILKQSMTLNLADPVGSLKPHLRAKNSDLLTSPDVGLLKLASPELERL
modifications: left off: a dimerising Fc or GST
notes: GST fusion protein containing residues 1-79 of c-Jun
Take B3: the “level of binding to JNK1 compared with JNK2” value in the assay with JNK1 is recorded as “greater than binding to JNK2”.

B4: GST-JIP-1 residues 127-281: GST fusion protein containing residues 127-281 of JIP-1 (protein)
chain: PKAESNQDPAPRSQGQGPGTGSGDTYRPKRPTTLNLFPQVPRSQDTLNNNSLGKKHSWQDRVSRSSSPLKTGEQTPPHEHICLSDELPPQGSPVPTQDRGTSTDSPCRRSAATQMAPPSGPPATAPGGRGHSHRDRIHYQADVRLEATEEIYLTP
modifications: left off: a dimerising Fc or GST
B4: the “binding to JNK2” value with JNK2 is recorded as “bound”. The “binding to JNK1” value in the assay with JNK1 is listed as “bound”.

B5: GST-JIP-1 residues 203-281: GST fusion protein containing residues 203-281 of JIP-1 (carboxy terminal region) (protein, UniProt Q9WVI9 203-281, looked up, fragment)
chain: PHEHICLSDELPPQGSPVPTQDRGTSTDSPCRRSAATQMAPPSGPPATAPGGRGHSHRDRIHYQADVRLEATEEIYLTP
modifications: GST fusion
For B5, the “binding to JNK2” value in the assay with JNK2 is listed as “No JNK binding was detected”. Also, the “binding to JNK1” value with JNK1 is on record as “No JNK binding was detected”.

B6: GST-JIP-1 residues 127-202: GST fusion protein containing residues 127-202 of JIP-1 (amino terminal region) (protein, UniProt Q9WVI9 127-202, looked up, fragment)
chain: PKAESNQDPAPRSQGQGPGTGSGDTYRPKRPTTLNLFPQVPRSQDTLNNNSLGKKHSWQDRVSRSSSPLKTGEQTP
modifications: GST fusion
For B6, in the assay with JNK2, the “binding to JNK2” value is “bound; also recorded: JNK binding activity was observed”. The “binding to JNK1” value in the assay with JNK1 is recorded as “bound; also recorded: JNK binding activity was observed”.

B7: GST-JIP-1 residues 164-240: GST fusion protein containing residues 164-240 of JIP-1 (central region) (protein, UniProt Q9WVI9 164-240, looked up, fragment)
chain: PQVPRSQDTLNNNSLGKKHSWQDRVSRSSSPLKTGEQTPPHEHICLSDELPPQGSPVPTQDRGTSTDSPCRRSAATQ
modifications: GST fusion
In the case of B7, the “binding to JNK2” value with JNK2 is listed as “No JNK binding was detected”. Besides, the “binding to JNK1” value with JNK1 is recorded as “No JNK binding was detected”.
